From patent publication US20260014269A1 (NECTIN THERAPEUTICS, published 2026) come the findings set out here.

Substitutions are numbered along the chain they refer to.

Test [1] has as its target T1, Nectin-4 on MDA-MB-468 cells (human, UniProt Q96NY8 32-510).
T1 construct: whole, on cells; also called Nectin-4 (on-cell)
T1 sequence (looked up): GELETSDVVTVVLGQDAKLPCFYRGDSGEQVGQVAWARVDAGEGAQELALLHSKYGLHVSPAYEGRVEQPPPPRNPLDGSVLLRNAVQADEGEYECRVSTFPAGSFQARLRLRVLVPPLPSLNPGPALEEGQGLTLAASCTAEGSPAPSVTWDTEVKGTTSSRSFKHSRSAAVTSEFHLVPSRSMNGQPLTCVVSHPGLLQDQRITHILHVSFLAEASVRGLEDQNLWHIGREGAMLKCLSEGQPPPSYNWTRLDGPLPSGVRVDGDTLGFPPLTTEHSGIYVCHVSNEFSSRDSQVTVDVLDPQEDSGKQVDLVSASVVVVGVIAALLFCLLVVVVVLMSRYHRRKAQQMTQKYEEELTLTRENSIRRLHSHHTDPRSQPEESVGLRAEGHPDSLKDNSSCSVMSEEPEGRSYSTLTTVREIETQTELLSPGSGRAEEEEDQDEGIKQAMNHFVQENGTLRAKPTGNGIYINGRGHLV
Put plainly: flow cytometry staining of MDA-MB-468 cells, anti-human IgG Fab Alexa Fluor 647 detection.

Test [2] has as its target T2, recombinant human Nectin-4 (Acro Biosystems) (human, UniProt Q96NY8 32-349).
T2 construct: Bought recombinant antigen used as analyte in SPR; also called PVRL4
T2 sequence (looked up): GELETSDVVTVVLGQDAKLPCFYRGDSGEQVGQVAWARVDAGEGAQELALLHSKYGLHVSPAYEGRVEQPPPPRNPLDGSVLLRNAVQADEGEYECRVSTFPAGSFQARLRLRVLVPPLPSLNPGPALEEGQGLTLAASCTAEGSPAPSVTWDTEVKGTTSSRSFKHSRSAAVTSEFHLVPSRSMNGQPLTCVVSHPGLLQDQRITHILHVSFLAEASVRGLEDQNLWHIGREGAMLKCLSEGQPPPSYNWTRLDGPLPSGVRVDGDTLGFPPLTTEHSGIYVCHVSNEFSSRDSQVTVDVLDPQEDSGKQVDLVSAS
Put plainly: SPR, Biacore T200 single cycle kinetics at 25 C, IgG from culture supernatant, Nectin-4 as analyte. The protocol: (§1) In order to assess the binding of all of the variants to human or cynomolgus Nectin-4 antigen and select lead humanized IgGs with the closest affinity to the chimeric (VH0/Vκ0) antibody, single cycle kinetic was performed on supernatants from transfected cell cultures. Kinetic experiments were performed at 25° C. on a Biacore T200 running Biacore T200Control software V2.0.1 and Evaluation software V3.0 (Cytiva, Marlborough, USA). Single cycle kinetic data was obtained using recombinant human (Acro Biosystems, Newark, USA) or cynomolgus Nectin-4 (Acro Biosystems, Newark, USA) as the analyte injected at a flow rate of 40 μl/min to minimize any potential mass transfer effects. A four point, two-fold dilution range from 1.25 nM to 10 nM of antigen in running buffer was used without regeneration between each concentration. The association phases were monitored for 150 seconds for each of the four injections of increasing concentrations of antigen and a single dissociation phase was measured for 250 seconds following the last injection of antigen (in order to improve fit the dissociation was cropped to 175 seconds for human Nectin-4). Regeneration of the sensor chip surface was conducted using a single injection of 3 M MgCl₂. Based on relative KD from Biacore single cycle kinetics analysis on supernatants, six humanized variants (VH4/Vκ1, VH4/Vκ3, VH4/Vκ4, VH4/Vκ5, VH5/Vκ4 and VH5/Vκ5) were selected as lead IgGs for scaled-up production and purification.

Test [3] addresses T3, recombinant cynomolgus Nectin-4 (Acro Biosystems) (cynomolgus, UniProt A0A2K5WES1 32-349).
T3 construct: Bought recombinant antigen used as analyte in SPR; also called Cyno Nectin-4
T3 sequence: T2 sequence (looked up) with V39A, I230V
The description is as above. The procedure: as §1

Test [4] has as its target T1, Nectin-4 on MDA-MB-468 cells. Kind of test: flow cytometry on MDA-MB-468 cells, 3-fold dilutions from 3 ug/ml, detection with Alexa Fluor 647 Fab goat anti-human IgG (H+L); y axis % Bound. The protocol: Binding was evaluated on MDA-MB-468 cells. Briefly, 5*10+ cells per well were stained using either PADCEV or NTX1105 conjugated to MMAE at the same DAR as PADCEV. The ADCs were added at concentrations starting 3 μg/ml using 3-fold dilutions. […] After 72 hours, the assay was harvested and tumor cell killing was evaluated using CellTiter-Glo® 2.0 Cell Viability Assay-(Promega G9242).

Broadly, the EC50 is the concentration that produces a half-maximal response. High values mean a less potent agent, low ones a more potent agent. Regarding Enfortumab-vedotin (PADCEV) (antibody), in test [1], the EC50 came out at 0.01 nM and the fold stronger EC-50 than NTX1105 conjugated to MMAE turned out to be 20 fold.

B1: NTX1105 (VH0/Vκ0) parental chimeric anti-Nectin-4 antibody, clone-11 (VH0/Vκ0)-hIgG1 (antibody, V domains shown)
VH: QVQLQQSGPELVKPETSVKISCKASGYTFTSYYIHWVKQRPGQGLEWIGWIYPGNVNTKYNERFKGKATLTADKSSNTAHMQLTSLTSEDSAVYFCARSNPYVMDYWGQGTSVTVSS
VL: SIVMTQTPKFLLVSAGDRVTITCKASQSVNNDVAWYQQKPGLSPELLMYYASNRFTGVPDRFTGSGYGTDFTFTISSVQAEDLAIYFCQQAYRSPYTFGGGTKLEIQR
notes: Tested from supernatants of transfected cell cultures; also called chimeric antibody; parental mAb
For orientation: Kd means the equilibrium constant for the complex coming apart. As to B1, the Kd in test [2] came out at 10.9 nM; in test [3], 12.1 nM.

B2: NTX1105 (H4K5) ADC, conjugated to MMAE at the same DAR as PADCEV (antibody, V domains shown)
VH: QVQLVQSGSELKKPGASVKVSCKASGYTFTSYYIHWVRQAPGQGLEWIGWIYPGNVNTKYNERFKGRVTITADKSTNTAYMELSSLRSEDTAVYYCARSNPYVMDYWGQGTSVTVSS
VL: DIQMTQSPSTLSASVGDRVTITCRASQSVNNDVAWYQQKPGKAPKLLMYYASNRFTGVPDRFSGSGYGTDFTLTISSLQAEDVAVYFCQQAYRSPYTFGQGTKLEIK
notes: also called NTX1105-MMAE; NTX1105-MC-VC-PAB-MMAE DAR4
The term EC50 (read off the curve) denotes the concentration needed to bring the measured effect to its halfway point. Read a low EC50 (read off the curve) as greater potency. In the case of B2, the “EC50 (read off the curve)” value in test [4] is roughly 0.01 µg/mL.

B3: NTX1105 humanized variant VH4/Vκ4 (antibody, V domains shown)
VH: B2 VH
VL: B2 VL with V83L, V85I
notes: Humanized IgG
As to B3, the figures for the Kd in test [2] and in test [3] were 18 nM and 21.3 nM, respectively.

B4: NTX1105 humanized variant VH4/Vκ3 (antibody, V domains shown)
VH: B2 VH
VL: B2 VL with R24K, V83L, V85I
notes: Humanized IgG
Consider B4, for which the Kd was found to be 15.5 nM in test [2] and 19.4 nM in test [3].

B5: NTX1105 humanized variant VH4/Vκ5 (antibody, V domains shown)
VH: B2 VH
VL: B2 VL
notes: also called NTX1105 (H4/k5); H4K5
Regarding B5, the dissociation constant Kd in test [2] worked out at 12.2 nM; in test [3], 13.7 nM.

B6: NTX1105 humanized variant VH5/Vκ4 (antibody, V domains shown)
VH: B2 VH with I48M, K65Q, N77S
VL: B2 VL with V83L, V85I
notes: Humanized IgG
For the molecule B6, the dissociation constant (Kd) in test [2] amounted to 17.7 nM; in test [3] it was 19.2 nM.

B7: NTX1105 humanized variant VH5/Vκ5 (antibody, V domains shown)
VH: B2 VH with I48M, K65Q, N77S
VL: B2 VL
notes: Humanized IgG; also called H5K5
For the molecule B7, the dissociation constant Kd worked out at 11.5 nM in test [2] and 12.7 nM in test [3].

B8: NTX1105 humanized variant VH4/Vκ1 (antibody, V domains shown)
VH: B2 VH
VL: SIVMTQSPSFLLASAGDRVTITCKASQSVNNDVAWYQQKPGLAPELLMYYASNRFTGVPDRFTGSGYGTDFTLTISSLQAEDLAIYFCQQAYRSPYTFGQGTKLEIK
notes: Humanized IgG
For the molecule B8, the Kd is 15.4 nM in test [2] and 19.3 nM in test [3].
